Patent publication US7799901B2, “Modulators of the function of FAS receptors and other proteins” (Yeda Research and Development Co. Ltd., priority 1995, dated 2010)

Legend:
[1] = biological target: T1, mouse Fas-IC (Mus musculus, UniProt P25446); test: Two-hybrid test of MORT-1 binding (FIG. 1), mouse Fas-IC; details: transfected SFY526 yeasts
T1 construct: four constructs of the mouse Fas-IC; expressed in transfected cells; host or cells: SFY526 yeast
T1 sequence (P25446 187-327 limits assumed): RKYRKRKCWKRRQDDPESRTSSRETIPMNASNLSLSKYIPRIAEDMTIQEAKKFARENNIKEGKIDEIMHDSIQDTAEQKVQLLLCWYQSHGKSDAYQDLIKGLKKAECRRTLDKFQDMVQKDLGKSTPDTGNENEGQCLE
Description: (§1) To isolate proteins interacting with the intracellular domain of the FAS-R, the yeast two-hybrid system was used (Fields and Song, 1989). […] In this system, the genes for the candidate interacting proteins are cloned into separate expression vectors. In one expression vector, the sequence of the one candidate protein is cloned in phase with the sequence of the GAL4 DNA-binding domain to generate a hybrid protein with the GAL4 DNA-binding-domain, and in the other vector, the sequence of the second candidate protein is cloned in phase with the sequence of the GAL4 activation domain to generate a hybrid protein with the GAL4-activation domain. The two hybrid vectors are then co-transformed into a yeast host strain having a lacZ or HIS3 reporter gene under the control of upstream GAL4 binding sites. Only those transformed host cells (cotransformants) in which the two hybrid proteins are expressed and are capable of interacting with each other, will be capable of expressing the reporter gene. In the case of the lacZ reporter gene, host cells expressing this gene will become blue in color when X-gal is added to the cultures. […]
(§2) In FIG. 1, there is depicted the interaction of the proteins encoded by the Gal4 DNA binding domain and activation-domain constructs (pGBT9 and pGAD-GH) within transfected SFY526 yeasts as assessed by β-galactosidase expression filter assay. […]

[2] = biological target: T2, p55 TNF receptor (Homo sapiens, UniProt P19438); test: Two-hybrid test of MORT-1 binding (FIG. 1), p55 TNF receptor; details: p55-IC residues 206-426, FIG. 1
T2 construct: human p55 TNF receptor (p55-IC residues 206-426); expressed in transfected cells; host or cells: SFY526 yeast
T2 sequence (P19438 235-455): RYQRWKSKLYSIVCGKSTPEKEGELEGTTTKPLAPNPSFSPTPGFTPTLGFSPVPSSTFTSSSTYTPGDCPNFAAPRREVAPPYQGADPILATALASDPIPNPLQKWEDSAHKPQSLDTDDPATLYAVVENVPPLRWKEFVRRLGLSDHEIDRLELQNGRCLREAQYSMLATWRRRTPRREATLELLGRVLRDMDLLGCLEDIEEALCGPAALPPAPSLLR
Description: as §1, §2

[3] = biological target: T3, MORT-1 (Homo sapiens, UniProt Q13158, G32V); test: Two-hybrid test (FIG. 1), binding to full-length MORT-1; parameters: expressed in transfected cells; host or cells: SFY526 yeast
T3 sequence (Q13158 with tags, fused parts or gaps G32V): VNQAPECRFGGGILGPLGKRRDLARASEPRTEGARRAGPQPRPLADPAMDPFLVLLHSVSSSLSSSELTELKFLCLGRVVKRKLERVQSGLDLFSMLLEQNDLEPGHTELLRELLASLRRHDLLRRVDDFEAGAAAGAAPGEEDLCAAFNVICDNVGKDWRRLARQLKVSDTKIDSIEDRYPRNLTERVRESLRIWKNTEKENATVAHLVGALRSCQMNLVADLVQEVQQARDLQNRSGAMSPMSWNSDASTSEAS
Description: To isolate proteins interacting with the intracellular domain of the FAS-R, the yeast two-hybrid system was used (Fields and Song, 1989). […] In this system, the genes for the candidate interacting proteins are cloned into separate expression vectors. In one expression vector, the sequence of the one candidate protein is cloned in phase with the sequence of the GAL4 DNA-binding domain to generate a hybrid protein with the GAL4 DNA-binding-domain, and in the other vector, the sequence of the second candidate protein is cloned in phase with the sequence of the GAL4 activation domain to generate a hybrid protein with the GAL4-activation domain. The two hybrid vectors are then co-transformed into a yeast host strain having a lacZ or HIS3 reporter gene under the control of upstream GAL4 binding sites. Only those transformed host cells (cotransformants) in which the two hybrid proteins are expressed and are capable of interacting with each other, will be capable of expressing the reporter gene. In the case of the lacZ reporter gene, host cells expressing this gene will become blue in color when X-gal is added to the cultures.
(b) retransforming the plasmid DNA and original FAS-IC hybrid plasmid and control plasmids described in (a) into yeast host cells of strain SFY526 and determining the LACZ^+ activity (effectivity of β-gal formation, i.e., blue color formation).
In FIG. 1, there is depicted the interaction of the proteins encoded by the Gal4 DNA binding domain and activation-domain constructs (pGBT9 and pGAD-GH) within transfected SFY526 yeasts as assessed by β-galactosidase expression filter assay. The DNA-binding-domain constructs included four constructs of the human Fas-IC, four constructs of the mouse Fas-IC including two full-length constructs having […] or Ile to Ala replacement mutations at position 225 (I225N and I225A, respectively), and three MORT-1 constructs, all of which are shown schematically on the left hand side of FIG. 1. […]

B1: MORT-1: Mediator of Receptor-induced Toxicity; protein binding the intracellular domain of FAS-R, SEQ ID NO:2 (protein)
chain: T3 sequence (Q13158 with tags, fused parts or gaps G32V)
- binding to mouse Fas-IC in two-hybrid test [1]: binds
- binding to p55 TNF receptor in two-hybrid test [2]: not
- binding to full-length MORT-1 in two-hybrid test [3]: binds to itself
